These results are taken from patent US20240239907A1 (EDELWEISS IMMUNE, published 2024).

This assay has as its target T1, human CXCR6 (human, UniProt O00574 1-342).
T1 construct: also called hu-CXCR6; wild type human CXCR6
Kind of assay: screening on cells overexpressing CXCR6, one single concentration, yes/no.

T1 sequence (O00574 whole entry): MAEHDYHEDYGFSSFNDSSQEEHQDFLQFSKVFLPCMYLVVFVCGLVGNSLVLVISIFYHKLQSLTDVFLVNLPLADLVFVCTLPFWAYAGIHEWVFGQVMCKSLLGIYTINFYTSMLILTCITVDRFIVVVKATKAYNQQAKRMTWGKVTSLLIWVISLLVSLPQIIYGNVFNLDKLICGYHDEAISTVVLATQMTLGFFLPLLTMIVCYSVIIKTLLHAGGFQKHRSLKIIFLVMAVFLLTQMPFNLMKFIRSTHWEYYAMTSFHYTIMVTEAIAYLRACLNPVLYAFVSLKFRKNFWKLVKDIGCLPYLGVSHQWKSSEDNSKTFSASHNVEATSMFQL

B1: Beacon1-G12 (antibody, V domains shown)
VH: EIQLVQSGPELKKPGKTVKISCKASGYTFTTYGMSWVKQAPGKALKWMGWINTYSGVPTYADDFKGRFAFSLETSASTAYLQINNLKNEDTATYFCAIRRLSITLHGMDYWGQGTSVTVS
VL: DIQMTQSPASLSVSVGETVTITCRASENIYSNLAWYQQKQGKSPQLLVYGATNLADGVPSRFSGSGSGTQYSLKINSLQSEDFGSYYCQHFWGTPWTFGGGTKLEIK
notes: Mouse-derived
For B1, the binding result is listed as “binds”.

B2: Beacon2-D5 (antibody, V domains shown)
VH: EVQLVESGGGLVQPKGSLKLSCAASGFTFNTYAMNWVRQAPGKGLEWVARIRSKSNNYATYYADSVKDRFTISRDDSQSMLYLQMNNLKTEDTAMYYCLSHGAFAYWGQGTLVTVSA
VL: not shown
notes: Mouse-derived; tested at the screening stage
B2: the binding result is “binds”.

B3: CNE-6H7-G7 (antibody, V domains shown)
VH: EVQLVESGGGLVQPKGSLKLSCAASGFSFNTYAMNWVRQAPGKGLEWVARIRSKSNNYGTYYADSVKDRFTISRDDSESMLYLKMNNLKTEDTAMYYCLSHGSSAYWGQGTLVTVSA
VL: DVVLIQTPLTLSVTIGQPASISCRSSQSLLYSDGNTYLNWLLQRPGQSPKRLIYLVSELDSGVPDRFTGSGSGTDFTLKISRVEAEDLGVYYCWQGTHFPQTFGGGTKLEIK
notes: as for B2
For the molecule B3, the binding result is “binds”.

B4: CNGs-1C1 (antibody, V domains shown)
VH: EVQLVESGGGLVRPKGSLKLSCAASGFSFNAYAMNWVRQAPGKGLEWVARIRSKSNNYATYYADSVKDRFTISRDDSESMLYLQMNNLKTEDTAMYYCLSHGAFAYWGQGTLVTVSA
VL: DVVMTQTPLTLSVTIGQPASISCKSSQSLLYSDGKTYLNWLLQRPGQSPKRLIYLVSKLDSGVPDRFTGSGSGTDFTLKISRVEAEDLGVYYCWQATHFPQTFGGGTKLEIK
notes: as for B2
On to B4, for which the binding result was “binds”.

B5: CNF-2F8 (antibody, V domains shown)
VH: EVQLVESGGGLVQPKGSLKLSCAASGFSFQTYAMNWVRQAPGKGLEWVARIRSKRNNYATYYADSVKDRFSISRDDSENMLYLQMNNLKTEDTAMYYCLSHGAFAYWGQGTLVTVSA
VL: not shown
notes: as for B2
For the molecule B5, the binding result is “binds”.

B6: CNE-6E10 (antibody, V domains shown)
VH: EVQLVESGGGLVQPKGSLKLSCAASGFSFNTYAMNWVRQAPGKGLEWVARIRSKTNSYETYYADSVKDRFTISRDDSESMLYLQMNNLKTEDTAVYYCLSHGAFAYWGQGTLVTVSA
VL: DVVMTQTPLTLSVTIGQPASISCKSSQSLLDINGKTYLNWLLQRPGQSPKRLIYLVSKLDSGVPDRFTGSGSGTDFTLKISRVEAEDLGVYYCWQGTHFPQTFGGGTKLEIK
notes: Mouse-derived
For B6, the binding result is given as “binds”.

B7: COXs-1B10 (antibody, V domains shown)
VH: QVTLKESGPGILKASQTLSLTCSFSGFSLSTSGMGIGWIRQPSGKGPEWLAHIWWDDEKYYRPSLKSRLTVSKDTSRNQVFLNITSVDTTDSASYYCVQRTPGRFAYWGQGTLVTVST
VL: DIVMTQSPSSLAVSIGQKVIMSCKSSQSLLSSRTQKNYLAWYQQKPGQSPKLLVYFASIRESGVPDRFTGSGSGTDFTLTISTVQAEDLAVYYCQQYFLTPYTFGGGTKLEIK
notes: Mouse antibody
With B7, the binding result is “binds”.

B8: CNGs-1B7 (antibody, V domains shown)
VH: EVKLEESGGGLVRPGGSMKLSCVASGFTFSDYWMNWVRQSPEKGLEWLAQIRLNSGNYAARYAESVKGRFTISRDDSKNSVYLQMINLRAEDTGIYFCTSNAWLANWGQGTLVTVSA
VL: DIVMTQTAPSVPVTPGESVSISCRSSKSLLHSNGNTYLYWFLQRPGQSPQRLIYSVSNLASGVPDRFSGRGSGTDFTLTISRVEAEDVGVYYCMQSLEYPYTFGGGTKLEIK
notes: Mouse-derived
Regarding B8, the binding result is “binds”.

B9: COXs-2D2 (antibody, V domains shown)
VH: EVQLVESGGGLVQPKGSLKLSCTASGFSFDTYAMNWVRQAPGKGLEWIARIRSKSKNYATYYADSVKDRFTISRDDSANILYLQMNNLKTEDTAIYYCLRQGSFDYWGQGTTLTVSS
VL: DVVLTQTPLSLPVSLGDQASISCRSGQRIVHTDGNTYLYWYLQKPGQSPKLLIYRVSNRFSGVPDRFSGSGSGTDFTLKISRVEAEDMGIYYCFQGTHFPYTFGGGTKLEIK
notes: Mouse-derived
Take B9: the binding result is “binds”.

B10: COXs-4H5 (antibody, V domains shown)
VH: EIQLVQSGPELKKPGKTVKISCKASGYTFTTYGMSWVKQAPGKALKWMGWINTYSGVPTYADDFKGRFAFSLETSASTAYLQINNLKNEDTATYFCAIRRLSITLHGMDYWGQGTSVTVS
VL: DVVMTQSPLSLPVSLGDQASIYCRSSQRIVHSDGNTYLYWYLQRPGQSPKLLIYRVSNRFSGVPDRFSGSGSGTDFTLKISRVEAEDMGIYYCFQGTHFPYTFGGGTKLEIK
notes: as for B2
As to B10, the binding result was “binds”.

B11: COXs-11E5 (antibody, V domains shown)
VH: EVQLVESGGGLVQPKGSLKLSCTASGFSFDTYAMNWVRQAPGKGLEWVARIRSKSKNYATYYADSVKDRFTVSRDDSANILYLQMNNLKTEDTAIYYCLRQGSFDYWGQGTTLTVSS
VL: DVVMTQTPLSLPVSLGDQASISCRSSQRIVHTDGNTYLYWYLQKPGQSPKLLIYRVSNRFSGVPDRFSGSGSGTDFILKISRVEAEDMGIYYCFQGTHFPYTFGGGTKLEIK
notes: as for B2
As for B11, the binding result was “binds”.

B12: COXs-9D6 (antibody, V domains shown)
VH: EVHLVESGGGLVQPKGSLKLSCTASGFSFDTYAMNWVRQAPGKGLEWVARIRSKSKNYATYYADSVTDRFTISRDDSANILYLQMNNLKTEDTAIYYCLSQGSFDYWGQGTTLTVSS
VL: DVVMTQTPLSLPVSLGDQASISCRSSQRIVHTDGNTYLYWYLQKPGQSPKLLIYRVSNRFSGVPDRFSGSGSGTDFILKISRVEAEDMGIYYCFQGTHFPYTFGGGTKLEIK
notes: as for B2
Turning to B12, the binding result is given as “binds”.

B13: COXs-12E7 (antibody, V domains shown)
VH: EVHLVESGGGLVQPKGSLKLSCKASGFSFDTYAMNWVRQAPGKGLEWVARIRSKSKSYATYYADSVKDRFTISRDDSANILYLQMNNLKTEDTAIYYCLRQGSFDYWGQGTTLTVSS
VL: DVVMTQTPLSLPVSLGDQASIYCRSSQRIVHSDGNTYLYWYLQRPGQSPKLLIYRVSNRFSGVPDRFSGSGSGTDFTLKISRVEAEDMGIYYCFQGTHFPYTFGGGTKLEIK
notes: as for B2
For B13, the binding result is “binds”.

B14: COXs-2D4 (antibody, V domains shown)
VH: EVHLVESGGGLVQPKGSLKLSCTASGFSFDTYAMNWVRQAPGKGLEWIARIRSKSKNSATYYADSVKDRFTISRDDSANILYLQMNNLKTEDTAIYYCLRQGSFDYWGQGTTLTVSS
VL: DVVMTQTPLSLPVSLGDQASISCRSSQRIVHTDGNTYLYWYLQKPGQSPKLLIYRVSNRFSGVPDRFSGSGSGTDFTLKITRVEAEDMGIYYCFQGTHFPYTFGGGTKLEIK
notes: as for B2
For the molecule B14, the binding result is “binds”.

B15: COXs-7A7 (antibody, V domains shown)
VH: EVQLMESGGGLVKPGGSRKLSCAASGFTFSDYGMHWVRQAPEKGLEWIAYINSGSSTIHYADSVKGRFTISRDNAKNTLFLQMTSLRSEDTAMYYCVRPGFAYWGQGTLITVSA
VL: DIVMTQTPLTLSTTVGQSAFISCRSSQSLLHRNGNTYLNWFLQRPGQSPQLLVYEIFERKSGVPDRFSGSGSGTDFTLKISRVEAEDLGVYYCMQATYEPLTFGAGTKLELK
notes: as for B2
Take B15: the binding result is “binds”.

B16: COXs-7E6 (antibody, V domains shown)
VH: EVQLMESGGGLVKPGGSRKLSCAASGFTFSDHGMHWVRQAPEKGLEWIAYINSGSSTIHYADSVKGRFTISRDNAKNTLFLHMTSLRSEDTAMYYCVRPGFAYWGQGTLITVSA
VL: DIVMTQTPLTLSITVGQSAFISCRSSQSLLHRNGNTYLNWFLQRPGQSPQLLVYEIFERKSGVPDRFSGSGSGTDFTLKISRVEAEDLGVYYCMQATYEPLTFGAGTKLELK
notes: as for B2
As for B16, the binding result was “binds”.

B17: COXs-11H4 (antibody, V domains shown)
VH: EVQLVESGGGLVQPKGSLKLSCAASGFTFNTYAMNWVRQVPGKGLEWIARMRSESKNFATYYADSVKDRFTISRDDSESILYLQMNNLKTEDTGMYYCVRQGNFDVWGTGTTVTVSS
VL: DVVMTQAPLSLSVSLGDQASISCRSGQNIVHTDGNTYLYWSLQKPGQSPNLLIYKVSNRFSGVPDRFSGSGSGTDFTLKINRVEAEDMGVYYCFQLTHVPYTFGGGTKLEIK
notes: as for B2
As to B17, the binding result was “binds”.
